From patent publication US20210275657A1 (BIONTECH US, published 2021)
One block for each binder: values may come before it.

Experiments:
HLA-B08:01 [1] = biological target: T1, HLA-B08:01 (human); assay: peptide-HLA stability, Example 9
T1 construct: Stability assay: E. coli-expressed biotinylated heavy chain with 125I-labelled b2m; MS: BAP-tagged HLA in HEK293T cells; Treated as one molecule

HLA-B08:01 [2] = biological target: T1, HLA-B08:01; assay: pMHC-I dissociation, 125I-b2m, 37C; experiment 2
HLA-B08:01 [3] = biological target: T1, HLA-B08:01; assay: competition vs radiolabeled peptide on purified HLA; measured IC50
HLA-B08:01 [4] = biological target: T1, HLA-B08:01; assay: pMHC-I dissociation, 125I-b2m, 37C; experiment 1
HLA-B08:01 [5] = biological target: T1, HLA-B08:01; assay: pMHC-I dissociation, 125I-b2m, 37C; average of 2
HLA-A02:01 [6] = biological target: T2, HLA-A02:01 (human); assay: peptide-HLA stability, Example 9
T2 construct: Stability assay: E. coli-expressed biotinylated heavy chain with 125I-labelled b2m

HLA-A02:01 [7] = biological target: T2, HLA-A02:01; assay: peptide-HLA affinity, Example 9
HLA-B07:02 [8] = biological target: T3, HLA-B07:02 (human); assay: peptide-HLA stability, Example 9
T3 construct: Stability assay: E. coli-expressed biotinylated heavy chain with 125I-labelled b2m; MS: BAP-tagged HLA in HEK293T cells; Treated as one molecule

HLA-B07:02 [9] = biological target: T3, HLA-B07:02; assay: pMHC-I dissociation, 125I-b2m, 37C; experiment 2
HLA-B07:02 [10] = biological target: T3, HLA-B07:02; assay: competition vs radiolabeled peptide on purified HLA; IC50 corrected for peptide concentration
HLA-B07:02 [11] = biological target: T3, HLA-B07:02; assay: competition vs radiolabeled peptide on purified HLA; measured IC50
HLA-B07:02 [12] = biological target: T3, HLA-B07:02; assay: pMHC-I dissociation, 125I-b2m, 37C; experiment 1
HLA-B07:02 [13] = biological target: T3, HLA-B07:02; assay: pMHC-I dissociation, 125I-b2m, 37C; average of 2
HLA-A02:01 [14] = biological target: T2, HLA-A02:01; assay: pMHC-I dissociation, 125I-b2m, 37C; experiment 2
HLA-A02:01 [15] = biological target: T2, HLA-A02:01; assay: competition vs radiolabeled peptide on purified HLA; IC50 corrected for peptide concentration
HLA-A02:01 [16] = biological target: T2, HLA-A02:01; assay: competition vs radiolabeled peptide on purified HLA; measured IC50
HLA-A02:01 [17] = biological target: T2, HLA-A02:01; assay: pMHC-I dissociation, 125I-b2m, 37C; experiment 1
HLA-A02:01 [18] = biological target: T2, HLA-A02:01; assay: pMHC-I dissociation, 125I-b2m, 37C; average of 2
HLA-A11:01 [19] = biological target: T4, HLA-A11:01 (human); assay: peptide-HLA stability, Example 9
T4 construct: Construct not described

HLA-A03:01 [20] = biological target: T5, HLA-A03:01 (human); assay: peptide-HLA stability, Example 9
T5 construct: Construct not described

HLA-A11:01 [21] = biological target: T4, HLA-A11:01; assay: peptide-HLA affinity, Example 9
HLA-A03:01 [22] = biological target: T5, HLA-A03:01; assay: peptide-HLA affinity, Example 9
HLA-A24:02 [23] = biological target: T6, HLA-A24:02 (human); assay: peptide-HLA stability, Example 9
T6 construct: Construct not described

HLA-A24:02 [24] = biological target: T6, HLA-A24:02; assay: peptide-HLA affinity, Example 9
HLA-B07:02 [25] = biological target: T3, HLA-B07:02; assay: peptide-HLA affinity, Example 9
HLA-A24:02 [26] = biological target: T6, HLA-A24:02; assay: peptide-HLA stability, Example 36
HLA-A24:02 [27] = biological target: T6, HLA-A24:02; assay: peptide-HLA affinity, Example 36
HLA-A01:01 [28] = biological target: T7, HLA-A01:01 (human); assay: peptide-HLA stability, Example 36
T7 construct: Construct not described

HLA-A03:01 [29] = biological target: T5, HLA-A03:01; assay: peptide-HLA stability, Example 36
HLA-A11:01 [30] = biological target: T4, HLA-A11:01; assay: peptide-HLA affinity, Example 36
HLA-A01:01 [31] = biological target: T7, HLA-A01:01; assay: peptide-HLA affinity, Example 36
HLA-A03:01 [32] = biological target: T5, HLA-A03:01; assay: peptide-HLA affinity, Example 36

- Observed MHC stability (HLA-A02:01 [6]): 1.1 h
- Observed MHC affinity (HLA-A02:01 [7]): 16 nM
B2: VLPEPHLAL (peptide)
peptide: VLPEPHLAL

- Observed MHC stability (HLA-B07:02 [8]): 0 h
- Observed MHC stability (HLA-B08:01 [1]): 0 h
- half-life (HLA-B07:02 [9]): 0 h
- half-life (HLA-B08:01 [2]): 0 h
- IC50 (HLA-B07:02 [10]): 267 nM
- IC50 (HLA-B07:02 [11]): 350 nM
- half-life (HLA-B07:02 [12]): 0 h
- half-life (HLA-B08:01 [4]): 0 h
- half-life (HLA-B07:02 [13]): 0 h
- half-life (HLA-B08:01 [5]): 0 h
B3: MFATLQRSSL (peptide)
peptide: MFATLQRSSL

- Observed MHC stability (HLA-A02:01 [6]): 0.5 h
- Observed MHC affinity (HLA-A02:01 [7]): 118 nM
- half-life (HLA-A02:01 [14]): 0.5 h
- IC50 (HLA-A02:01 [15]): 118 nM
- IC50 (HLA-A02:01 [16]): 281 nM
- half-life (HLA-A02:01 [17]): 0.5 h
- half-life (HLA-A02:01 [18]): 0.5 h
B4: TLQRSSLWCL (peptide)
peptide: TLQRSSLWCL

- Observed MHC stability (HLA-A11:01 [19]): 0 h
- Observed MHC stability (HLA-A03:01 [20]): 0.3 h
- Observed MHC affinity (HLA-A11:01 [21]): 1730 nM
- Observed MHC affinity (HLA-A03:01 [22]): 80 nM
B5: YMFLKAESK (peptide)
peptide: YMFLKAESK

- Observed MHC stability (HLA-A24:02 [23]): 0.2 h
- Observed MHC affinity (HLA-A24:02 [24]): 332 nM
B7: MFLKAESKI (peptide)
peptide: MFLKAESKI

- Observed MHC stability (HLA-A11:01 [19]): 0 h
- Observed MHC stability (HLA-A03:01 [20]): 0.3 h
- Observed MHC affinity (HLA-A11:01 [21]): 4540 nM
- Observed MHC affinity (HLA-A03:01 [22]): 16 nM
B11: VLWTTPPLQH (peptide)
peptide: VLWTTPPLQH

- Stability (1/2 hr) (HLA-A01:01 [28]): 0.216 h
- Stability (1/2 hr) (HLA-A03:01 [29]): 0.238 h
- Affinity (HLA-A11:01 [30]): 536 nM
- Affinity (HLA-A01:01 [31]): 439 nM
- Affinity (HLA-A03:01 [32]): 35.6 nM
B14: MANGSLLNY (peptide)
peptide: MANGSLLNY
notes: also called BTK C481S mutant peptide

- Observed MHC stability (HLA-B07:02 [8]): 1.4 h
- Observed MHC affinity (HLA-B07:02 [25]): 109 nM
B18: QPVLWTTPPL (peptide)
peptide: QPVLWTTPPL

- Stability (1/2 hr) (HLA-A01:01 [28]): 0.866 h
- Stability (1/2 hr) (HLA-A03:01 [29]): 0.279 h
- Affinity (HLA-A11:01 [30]): 974 nM
- Affinity (HLA-A01:01 [31]): 13.2 nM
- Affinity (HLA-A03:01 [32]): 95.9 nM
B19: YMANGSLLNY (peptide)
peptide: YMANGSLLNY
notes: as for B14

More lines, now with the values behind:

B1: LHFCRSSIM (peptide)
peptide: LHFCRSSIM
- Observed MHC stability (HLA-B08:01 [1]): 0 h
- half-life (HLA-B08:01 [2]): 0 h
- IC50 (HLA-B08:01 [3]): 167 nM
- half-life (HLA-B08:01 [4]): 0 h
- half-life (HLA-B08:01 [5]): 0 h

B6: IMKPKRDGYM (peptide)
peptide: IMKPKRDGYM
- Observed MHC stability (HLA-B08:01 [1]): 0.4 h
- half-life (HLA-B08:01 [2]): 0.4 h
- IC50 (HLA-B08:01 [3]): 40.2 nM
- half-life (HLA-B08:01 [4]): 0.4 h
- half-life (HLA-B08:01 [5]): 0.4 h

B8: KPKRDGYMF (peptide)
peptide: KPKRDGYMF
- Observed MHC stability (HLA-B07:02 [8]): 8.6 h
- Observed MHC affinity (HLA-B07:02 [25]): 28 nM
- half-life (HLA-B07:02 [9]): 9 h
- IC50 (HLA-B07:02 [10]): 28.2 nM
- IC50 (HLA-B07:02 [11]): 28.2 nM
- half-life (HLA-B07:02 [12]): 8.3 h
- half-life (HLA-B07:02 [13]): 8.6 h

B9: KIMFATLQR (peptide)
peptide: KIMFATLQR
- Observed MHC stability (HLA-A11:01 [19]): 8.9 h
- Observed MHC stability (HLA-A03:01 [20]): 5.6 h
- Observed MHC affinity (HLA-A11:01 [21]): 23 nM
- Observed MHC affinity (HLA-A03:01 [22]): 3 nM

B10: GPPARVPAV (peptide)
peptide: GPPARVPAV
- Observed MHC stability (HLA-B07:02 [8]): 1.6 h
- Observed MHC affinity (HLA-B07:02 [25]): 221 nM
- half-life (HLA-B07:02 [9]): 1.8 h
- IC50 (HLA-B07:02 [10]): 221 nM
- IC50 (HLA-B07:02 [11]): 282 nM
- half-life (HLA-B07:02 [12]): 1.5 h
- half-life (HLA-B07:02 [13]): 1.6 h

B12: FATLQRSSL (peptide)
peptide: FATLQRSSL
- Observed MHC stability (HLA-B07:02 [8]): 0.7 h
- Observed MHC stability (HLA-B08:01 [1]): 0 h
- Observed MHC affinity (HLA-B07:02 [25]): 14 nM
- half-life (HLA-B07:02 [9]): 0.6 h
- half-life (HLA-B08:01 [2]): 0 h
- IC50 (HLA-B07:02 [10]): 14 nM
- IC50 (HLA-B07:02 [11]): 14 nM
- IC50 (HLA-B08:01 [3]): 27.5 nM
- half-life (HLA-B07:02 [12]): 0.7 h
- half-life (HLA-B08:01 [4]): 0 h
- half-life (HLA-B07:02 [13]): 0.7 h
- half-life (HLA-B08:01 [5]): 0 h

B13: EYMANGSLL (peptide)
peptide: EYMANGSLL
notes: as for B14
- Stability (1/2 hr) (HLA-A24:02 [26]): 5.72 h
- Affinity (HLA-A24:02 [27]): 4.96 nM

B15: ESKIMFATL (peptide)
peptide: ESKIMFATL
- Observed MHC stability (HLA-B08:01 [1]): 1.3 h
- half-life (HLA-B08:01 [2]): 1.6 h
- IC50 (HLA-B08:01 [3]): 23.3 nM
- half-life (HLA-B08:01 [4]): 1 h
- half-life (HLA-B08:01 [5]): 1.3 h

B16: KPKRDGYMFL (peptide)
peptide: KPKRDGYMFL
- Observed MHC stability (HLA-B07:02 [8]): 3.3 h
- Observed MHC affinity (HLA-B07:02 [25]): 98 nM
- half-life (HLA-B07:02 [9]): 3.3 h
- IC50 (HLA-B07:02 [10]): 98.1 nM
- IC50 (HLA-B07:02 [11]): 115 nM
- half-life (HLA-B07:02 [12]): 3.3 h
- half-life (HLA-B07:02 [13]): 3.3 h

B17: AIQPVLWTT (peptide)
peptide: AIQPVLWTT
- Observed MHC stability (HLA-A02:01 [6]): 1.5 h
- Observed MHC affinity (HLA-A02:01 [7]): 8 nM

B20: EPHLALQPL (peptide)
peptide: EPHLALQPL
- Observed MHC stability (HLA-B07:02 [8]): 7.2 h
- Observed MHC stability (HLA-B08:01 [1]): 0 h

B21: FLKAESKIM (peptide)
peptide: FLKAESKIM
- Observed MHC stability (HLA-B08:01 [1]): 1.2 h
- half-life (HLA-B08:01 [2]): 1.5 h
- half-life (HLA-B08:01 [4]): 0.8 h
- half-life (HLA-B08:01 [5]): 1.2 h

B22: FLKAESKIMF (peptide)
peptide: FLKAESKIMF
- Observed MHC stability (HLA-B08:01 [1]): 0 h
- half-life (HLA-B08:01 [2]): 0 h
- IC50 (HLA-B08:01 [3]): 90 nM
- half-life (HLA-B08:01 [4]): 0 h
- half-life (HLA-B08:01 [5]): 0 h
